# T1: human IL-12Rβ2 (human, UniProt Q99665 24-862)
# T1 construct: Expressed on HEK293T cells transiently transfected with a pcDNA3 plasmid (Genscript clone OHu21785); also called hIL-12RB2; IL-12 receptor β2 subunit
# T1 sequence: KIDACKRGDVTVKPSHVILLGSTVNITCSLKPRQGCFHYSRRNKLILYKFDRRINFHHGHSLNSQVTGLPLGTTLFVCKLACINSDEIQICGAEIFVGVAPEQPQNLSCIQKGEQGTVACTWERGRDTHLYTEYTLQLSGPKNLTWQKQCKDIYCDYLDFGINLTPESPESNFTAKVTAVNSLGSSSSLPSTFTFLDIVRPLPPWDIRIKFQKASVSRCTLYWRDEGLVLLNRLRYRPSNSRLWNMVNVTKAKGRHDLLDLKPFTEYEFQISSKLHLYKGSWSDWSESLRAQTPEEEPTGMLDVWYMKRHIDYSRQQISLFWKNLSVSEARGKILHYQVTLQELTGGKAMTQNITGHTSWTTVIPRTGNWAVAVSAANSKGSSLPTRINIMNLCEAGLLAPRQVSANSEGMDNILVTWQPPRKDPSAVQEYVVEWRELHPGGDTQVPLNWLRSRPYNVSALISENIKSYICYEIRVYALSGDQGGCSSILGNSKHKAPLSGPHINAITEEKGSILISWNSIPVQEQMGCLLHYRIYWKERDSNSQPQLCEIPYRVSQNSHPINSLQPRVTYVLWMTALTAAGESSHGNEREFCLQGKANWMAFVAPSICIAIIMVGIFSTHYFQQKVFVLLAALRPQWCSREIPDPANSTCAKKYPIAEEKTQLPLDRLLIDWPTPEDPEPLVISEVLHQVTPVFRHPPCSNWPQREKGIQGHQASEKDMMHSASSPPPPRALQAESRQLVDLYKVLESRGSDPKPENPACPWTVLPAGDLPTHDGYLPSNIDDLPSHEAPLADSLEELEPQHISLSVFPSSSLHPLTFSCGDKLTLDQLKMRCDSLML
# T2: mouse IL-12Rβ2 (mouse, UniProt P97378 24-874)
# T2 construct: Expressed on HEK293T cells transiently transfected with a pcDNA3 plasmid (Genscript clone OMu01776); also called mIL-12RB2; NP_032380.1
# T2 sequence: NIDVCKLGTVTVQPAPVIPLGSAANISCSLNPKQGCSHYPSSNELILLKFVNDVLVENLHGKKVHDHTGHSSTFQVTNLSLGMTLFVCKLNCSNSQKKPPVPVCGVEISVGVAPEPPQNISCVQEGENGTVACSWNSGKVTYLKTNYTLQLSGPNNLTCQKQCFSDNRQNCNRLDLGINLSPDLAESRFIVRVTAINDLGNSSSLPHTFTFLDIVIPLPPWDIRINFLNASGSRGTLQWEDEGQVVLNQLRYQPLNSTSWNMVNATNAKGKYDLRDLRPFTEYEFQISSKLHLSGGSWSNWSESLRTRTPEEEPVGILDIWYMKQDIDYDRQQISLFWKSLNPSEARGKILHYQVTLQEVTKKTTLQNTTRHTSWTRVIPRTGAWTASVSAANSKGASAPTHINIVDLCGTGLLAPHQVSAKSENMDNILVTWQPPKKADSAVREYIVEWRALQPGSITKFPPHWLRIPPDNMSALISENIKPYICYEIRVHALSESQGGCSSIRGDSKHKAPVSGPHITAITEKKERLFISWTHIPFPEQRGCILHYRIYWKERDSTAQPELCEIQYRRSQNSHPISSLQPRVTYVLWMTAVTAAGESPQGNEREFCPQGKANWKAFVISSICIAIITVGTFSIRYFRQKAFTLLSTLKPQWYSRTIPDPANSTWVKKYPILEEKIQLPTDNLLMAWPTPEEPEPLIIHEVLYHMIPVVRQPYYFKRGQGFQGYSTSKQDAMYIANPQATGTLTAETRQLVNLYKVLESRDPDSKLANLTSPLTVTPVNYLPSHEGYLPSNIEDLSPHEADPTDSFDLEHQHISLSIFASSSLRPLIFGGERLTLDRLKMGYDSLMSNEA
# T3: human IL-12Rβ2 expressed on cells (human, UniProt Q99665 24-862)
# T3 sequence: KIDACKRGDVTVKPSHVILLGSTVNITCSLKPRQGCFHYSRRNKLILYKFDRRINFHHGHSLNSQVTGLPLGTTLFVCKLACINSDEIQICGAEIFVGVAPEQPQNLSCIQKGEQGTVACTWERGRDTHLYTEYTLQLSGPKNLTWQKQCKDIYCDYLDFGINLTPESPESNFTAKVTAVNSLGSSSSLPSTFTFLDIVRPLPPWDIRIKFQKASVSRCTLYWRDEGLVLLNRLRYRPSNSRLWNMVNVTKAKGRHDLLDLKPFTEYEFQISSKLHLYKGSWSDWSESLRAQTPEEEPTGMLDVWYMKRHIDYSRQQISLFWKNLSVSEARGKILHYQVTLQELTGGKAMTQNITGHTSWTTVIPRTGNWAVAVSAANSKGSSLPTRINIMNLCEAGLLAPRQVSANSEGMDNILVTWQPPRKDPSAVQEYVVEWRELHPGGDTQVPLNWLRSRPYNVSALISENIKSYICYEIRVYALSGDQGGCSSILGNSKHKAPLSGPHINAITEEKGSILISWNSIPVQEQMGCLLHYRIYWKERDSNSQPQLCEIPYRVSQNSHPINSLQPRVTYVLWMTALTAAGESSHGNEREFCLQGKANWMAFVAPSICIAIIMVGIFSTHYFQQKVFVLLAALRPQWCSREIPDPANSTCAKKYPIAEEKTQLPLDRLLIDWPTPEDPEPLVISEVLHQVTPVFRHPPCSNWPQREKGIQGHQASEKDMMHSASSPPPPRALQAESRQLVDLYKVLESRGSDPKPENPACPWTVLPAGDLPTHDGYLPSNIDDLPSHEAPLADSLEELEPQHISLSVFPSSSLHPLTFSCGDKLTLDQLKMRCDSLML
# Assays:
# human IL-12Rβ2 = target: T1, human IL-12Rβ2; assay: flow cytometry, P.E. on transfected HEK293T cells
# mouse IL-12Rβ2 = target: T2, mouse IL-12Rβ2; assay: flow cytometry, P.E. on transfected HEK293T cells
# [1] = target: T3, human IL-12Rβ2 expressed on cells; assay: cell-based or functional assay
% cells bound (human IL-12Rβ2) [%],dMFI (human IL-12Rβ2),% cells bound (mouse IL-12Rβ2) [%],dMFI (mouse IL-12Rβ2),% Specific Cell Lysis at 0.00125 ug/mL [1] [%],% Specific Cell Lysis at 0.5 ug/mL [1] [%],% Specific Cell Lysis at 10 ug/mL [1] [%],Binder
19.5,397,10.4,357,,,,"anti-IL-12Rβ2 VHH clone 3CRHM73 (VHH, not shown: small tags and cut ends, periplasmic extract; also called 21060) VHH: QVQLQESGGGLVQAGGSLSLSCAASGSAFRLNFMGWYRQAPGKQRELVAAINSGGTEIYHDSVKGRFTISRDNADSTVWLQMNSLKPDDTAVYYCAADRGISWSKLAGGMDYWGKGTQVTVSS"
24.4,558,10.7,351,,,,"anti-IL-12Rβ2 VHH clone 3CRHM99 (VHH, not shown: small tags and cut ends, periplasmic extract; also called 21062) VHH: QVQLQESGGGLVQPGGSLRLSCAASGISSSRLHVGWFRQSPGKEREFVAAISLSGGTQAYTDSVKGRFTISGDNVKNTAYLQMNSLRPEDTAVYYCAARERFIWTWSDLTYDYWGQGTQVTVSS"
36,759,17.1,421,,,,"anti-IL-12Rβ2 VHH clone 3CRHM49 (VHH, not shown: small tags and cut ends, periplasmic extract; also called 21058) VHH: QVQLQESGGGLVQAGGSLRLSCAASGRTFSNYAMAWFRQAPGTEREFVAGLSGSGGDTAFYDNSVMGRFTISRDSAKNTMWLQINNLKPEDTAVYYCAAATHVVVSYGLVRRRGTYDYWGQGTQVTVSS"
37.3,826,16,425,,,,"anti-IL-12Rβ2 VHH clone 3CRHM35 (VHH, not shown: small tags and cut ends, periplasmic extract; also called 21057) VHH: QVQLQESGGGLVQAGGSLRLSCAASGRTFSNYAMAWFRQAPGTEREFVAGLSGSGGDTAFYDNSVMGRFTISRDSAKNTMWLQINNLKPEDTAVYYCAAATHVVVNYGLVRRRGTYDYWGQGTQVTVSS"
35.8,689,18.6,412,,,,"anti-IL-12Rβ2 VHH clone 3CRHM14 (VHH, not shown: small tags and cut ends, periplasmic extract) VHH: QVQLQESGGGLVQAGGSLRLSCAASGRTFSNYAMAWFRQAPGTEREFVAGLSGSGGDTEFYDDSVKGRFAISRDSAKNTVWLQMNSLKPEDTAVYYCAAATHVVVHYGLVRRRGTYDYWGQGTQVTVSS"
36.7,767,15.3,369,,,,"anti-IL-12Rβ2 VHH clone 3CRHM18 (VHH, not shown: small tags and cut ends, periplasmic extract) VHH: QVQLQESGGGLVQDGGSLRLSCAASGRTFSNYAMAWFRQAPGTEREFVAGLSGSGGDTAFYDNSVMGRFTISRDSAKNTMWLQINNLKPEDTAVYYCAAATHVVVSYGLVRKRGTYDYWGQGTQVTVSS"
35.3,694,17.2,470,,,,"anti-IL-12Rβ2 VHH clone 3CRHM200 (VHH, not shown: small tags and cut ends, periplasmic extract; also called 21064) VHH: QVQLQESGGGLVQPGGSLRLSCAASGRTFSNYAMAWFRQAPGTEREFVAGLSGSGGDTAFYDNSVMGRFTISRDSAKNTMWLQINNLKPEDTAVYYCAAATHVVVSYGLVRRRGTYDYWGQGTQVTVSS"
37.6,784,7.51,294,,,,"anti-IL-12Rβ2 VHH clone 3CAHM11 (VHH, not shown: small tags and cut ends, periplasmic extract) VHH: QVQLQESGGGLVQAGGSLRLSCAASGRTFNNYAMAWFRQAPGKEREFIAAITRSDTTLYIDSVKGRFTISRDNAKNTVALQMNSLKPEDTAVYYCAAGMPYSYSDYPRDSKYDYWGRGTQVTVSS"
30.4,495,1.21,103,,,,"anti-IL-12Rβ2 VHH clone 3CRHM12 (VHH, not shown: small tags and cut ends, periplasmic extract) VHH: QVQLQESGGGSVQAGGSLRLSCAVSGRTVSDYAMGWFRQAPGKEREFVAAMSSSETTVYPNSVKGRITISRDNAKNAVYLQMNALKPEDTAVYYCSMGPIVTFQGLARQNEYHYWGQGTQVTVSS"
32.7,544,1.02,105,,,,"anti-IL-12Rβ2 VHH clone 3CAHM40 (VHH, not shown: small tags and cut ends, periplasmic extract) VHH: QVQLQESGGGSVQAGGSLRLSCAVSGRTVSDYAMGWFRQAPGKEREFVAAMSSSETTVYPNSMKGRITISRDNAKNAVYLQLNALKPEDTAVYYCSMGPIATFQGLARQNEYHYWGQGTQVTVSS"
33.7,721,0.59,133,,,,"anti-IL-12Rβ2 VHH clone 3CRHM133 (VHH, not shown: small tags and cut ends, periplasmic extract; also called 21063) VHH: QVQLQESGGGSVQAGGSLRLSCAVSGRPVSDYAMGWFRQAPGKEREFVAALSASDTTVYPNSVKGRITISRDNAKNAVDLQMNALKPEDTAVYYCAMGPIGTFQGLARQNEYHYWGQGTQVTVSS"
33.7,635,0.33,43,,,,"anti-IL-12Rβ2 VHH clone 3CRHM240 (VHH, not shown: small tags and cut ends, periplasmic extract; also called 21065) VHH: QVQLQESGGGSVQAGGSLRLSCAVSGRTVSDYAMGWFRQAPGKEREFVVAMSSSETTVYTNSVKGRITISRDNAKNAVYLQMNALKPEDTAVYYCSMGPITTFQGLARQNEYHYWGQGTQVTVSS"
,,,,52.7,60.9,69.5,anti-IL-12Rβ2-VHH-FcDE clone 21062 (Fc fusion) QVQLQESGGGLVQPGGSLRLSCAASGISSSRLHVGWFRQSPGKEREFVAAISLSGGTQAYTDSVKGRFTISGDNVKNTAYLQMNSLRPEDTAVYYCAARERFIWTWSDLTYDYWGQGTQVTVSSAPELLGGPDVFLFPPKPKDTLMISRTPEVTCVVVDVSHEDPEVKFNWYVDGVEVHNAKTKPREEQYNSTYRVVSVLTVLHQDWLNGKEYKCKVSNKALPAPEEKTISKAKGQPREPQVYTLPPSRDELTKNQVSLTCLVKGFYPSDIAVEWESNGQPENNYKTTPPVLDSDGSFFLYSKLTVDKSRWQQGNVFSCSVMHEALHNHYTQKSLSLSPGK
28.7,556,0.18,86,,,,"anti-IL-12Rβ2 VHH clone 3CRHM20 (VHH, not shown: small tags and cut ends, periplasmic extract; also called 21055) VHH: QVQLQESGGGLVQAGGSLRLSCAASGRTFSKSTMGWFRQTPGKEREFVAAITWTDTEVYANSVKDRFTISRDNAKNTFYLQMHSLKLEDTAVYYCAGDRYGSSRDSVFSSPTNYPYWGQGTQVTVSS"
31.2,676,0.74,157,,,,"anti-IL-12Rβ2 VHH clone 3CRHM85 (VHH, not shown: small tags and cut ends, periplasmic extract; also called 21061) VHH: QVQLQESGGGLVQPGGSLRLSCAASRRTFSKHAMAWFRQAPGKEREFVAVVRWSGIITYYADSVKGRFTISRDDAKNTVYLQMDSLKPEDTAVYYCAAGDYRGNGYYVPGMYDYWGQGTQVTVSS"

# Source: patent US20260209362A1 (VIB VZW, published 2026)
